Test results as given in publication PMC9482650, “Quantitative fragmentomics allow affinity mapping of interactomes” (Nature Communications, 2022).

Assays:
Experiment in all cases: holdup assay
Parameters in all cases: key: below the threshold = too weak to quantify, mostly under pKd 3.1 to 4
[1] = biological target: DLG4_2, P78352
[2] = biological target: AHNAK1, Q09666
[3] = biological target: T1, GRIP1_2, Q9Y3R0
T1 sequence (Q9Y3R0 145-248, limits assumed, looked up): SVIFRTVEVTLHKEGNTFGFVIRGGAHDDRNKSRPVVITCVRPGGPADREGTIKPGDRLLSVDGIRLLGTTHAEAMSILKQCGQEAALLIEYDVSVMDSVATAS

[4] = biological target: T2, RADIL, Q96JH8
T2 sequence (Q96JH8 971-1071, limits assumed, looked up): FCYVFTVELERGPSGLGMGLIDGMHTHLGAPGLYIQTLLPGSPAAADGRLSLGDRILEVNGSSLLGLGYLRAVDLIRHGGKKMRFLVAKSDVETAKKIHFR

[5] = biological target: T3, ARHGEF11, O15085
T3 sequence (O15085 42-136, limits assumed, looked up): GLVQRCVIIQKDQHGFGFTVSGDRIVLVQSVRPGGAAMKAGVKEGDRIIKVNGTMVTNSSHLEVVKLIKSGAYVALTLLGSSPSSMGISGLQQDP

[6] = biological target: DLG2_3, Q15700
[7] = biological target: T4, MPDZ_5, O75970
T4 sequence (O75970 695-796, limits assumed, looked up): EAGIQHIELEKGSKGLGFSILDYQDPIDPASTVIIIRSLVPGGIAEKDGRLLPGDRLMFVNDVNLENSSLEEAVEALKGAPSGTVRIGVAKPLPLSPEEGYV

[8] = biological target: T5, DLG3_1, Q92796
T5 sequence (Q92796 125-227, limits assumed, looked up): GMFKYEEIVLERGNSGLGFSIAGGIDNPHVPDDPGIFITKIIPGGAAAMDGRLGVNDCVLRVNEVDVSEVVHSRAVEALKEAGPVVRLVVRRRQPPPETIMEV

[9] = biological target: MAGI2_4, Q86UL8
[10] = biological target: LNX1_2, Q8TBB1
[11] = biological target: T6, SNTB1, Q13884
T6 sequence (Q13884 107-205, limits assumed, looked up): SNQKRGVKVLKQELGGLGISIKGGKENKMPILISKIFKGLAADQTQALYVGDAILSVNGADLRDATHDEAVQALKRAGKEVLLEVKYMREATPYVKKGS

[12] = biological target: TJP2_1, Q9UDY2
[13] = biological target: Inadl_10, Q8NI35
[14] = biological target: TJP1_2, Q07157
[15] = biological target: T7, TX1BP3, O14907
T7 sequence (O14907 10-122, limits assumed, looked up): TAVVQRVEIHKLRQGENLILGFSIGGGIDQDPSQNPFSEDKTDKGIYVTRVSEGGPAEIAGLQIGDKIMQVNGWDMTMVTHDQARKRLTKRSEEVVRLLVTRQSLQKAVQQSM

[16] = biological target: DLG1_1, Q12959
[17] = biological target: T8, APBA1_1, Q02410
T8 sequence (Q02410 651-752, limits assumed, looked up): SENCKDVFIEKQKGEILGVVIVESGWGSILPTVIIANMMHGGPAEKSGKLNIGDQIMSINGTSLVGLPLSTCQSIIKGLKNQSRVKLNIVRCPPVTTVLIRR

[18] = biological target: T9, LNX2_2, Q8N448
T9 sequence (Q8N448 334-432, limits assumed, looked up): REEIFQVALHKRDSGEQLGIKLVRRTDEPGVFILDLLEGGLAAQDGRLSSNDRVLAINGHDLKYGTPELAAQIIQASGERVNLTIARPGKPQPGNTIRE

[19] = biological target: T10, APBA2_2, Q99767
T10 sequence (Q99767 654-744, limits assumed, looked up): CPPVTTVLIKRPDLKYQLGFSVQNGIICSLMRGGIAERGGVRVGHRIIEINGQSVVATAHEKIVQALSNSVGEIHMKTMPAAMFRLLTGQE

[20] = biological target: LAP2, Q96RT1
[21] = biological target: T11, CARD11, Q9BXL7
T11 sequence (Q9BXL7 662-765, limits assumed, looked up): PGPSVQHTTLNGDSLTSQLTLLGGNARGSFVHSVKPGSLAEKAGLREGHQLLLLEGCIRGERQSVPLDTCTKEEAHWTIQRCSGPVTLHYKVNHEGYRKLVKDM

[22] = biological target: MAGI3_2, Q5TCQ9
[23] = biological target: DLG1_3, Q12959
[24] = biological target: PDZRN4_1, Q6ZMN7
[25] = biological target: PICK1, Q9NRD5
[26] = biological target: T12, MPP2, Q14168
T12 sequence (Q14168 180-250, limits assumed, looked up): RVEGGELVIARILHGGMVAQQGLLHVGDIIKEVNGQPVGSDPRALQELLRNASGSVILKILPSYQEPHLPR

[27] = modified: phospho on T at position -2 from the C-terminal residue
[28] = plain residues with an end cap or a label only (N-terminal biotin on a linker: ado-ado)

Chain of LAP2, Q96RT1 (Q96RT1 other isoform, or with tags, fused parts or gaps): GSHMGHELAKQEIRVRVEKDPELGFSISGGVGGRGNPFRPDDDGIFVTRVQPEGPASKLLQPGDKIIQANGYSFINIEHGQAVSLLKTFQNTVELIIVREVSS
Chain of AHNAK1, Q09666 (Q09666 4-100): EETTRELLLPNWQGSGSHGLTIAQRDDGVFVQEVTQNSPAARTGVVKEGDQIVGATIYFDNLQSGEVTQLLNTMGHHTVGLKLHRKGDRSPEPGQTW
Chain of MAGI2_4, Q86UL8 (Q86UL8 772-865): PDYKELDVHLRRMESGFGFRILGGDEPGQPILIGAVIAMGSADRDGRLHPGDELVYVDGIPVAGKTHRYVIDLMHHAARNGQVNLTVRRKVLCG
Chain of DLG4_2, P78352 (P78352 155-259): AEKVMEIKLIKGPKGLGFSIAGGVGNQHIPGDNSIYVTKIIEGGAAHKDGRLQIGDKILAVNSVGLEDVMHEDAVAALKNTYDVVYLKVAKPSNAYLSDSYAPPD
Chain of MAGI3_2, Q5TCQ9 (Q5TCQ9 398-503): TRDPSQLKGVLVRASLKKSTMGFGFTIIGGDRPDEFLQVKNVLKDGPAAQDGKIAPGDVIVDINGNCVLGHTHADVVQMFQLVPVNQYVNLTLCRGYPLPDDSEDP
Chain of LNX1_2, Q8TBB1 (Q8TBB1 371-470): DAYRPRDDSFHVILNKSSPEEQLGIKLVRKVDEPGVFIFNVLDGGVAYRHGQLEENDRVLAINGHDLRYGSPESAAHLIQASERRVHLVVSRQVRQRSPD
Chain of PICK1, Q9NRD5 (Q9NRD5 17-115): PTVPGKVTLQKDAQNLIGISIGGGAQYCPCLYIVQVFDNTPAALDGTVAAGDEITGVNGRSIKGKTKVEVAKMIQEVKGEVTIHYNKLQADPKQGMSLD
Chain of Inadl_10, Q8NI35 (Q8NI35 1673-1763): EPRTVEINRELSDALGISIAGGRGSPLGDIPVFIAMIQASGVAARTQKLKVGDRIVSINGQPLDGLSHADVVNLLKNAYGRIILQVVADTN
Chain of TJP1_2, Q07157 (Q07157 181-274): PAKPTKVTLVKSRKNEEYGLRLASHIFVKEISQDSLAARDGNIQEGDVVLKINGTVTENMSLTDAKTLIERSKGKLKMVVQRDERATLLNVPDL
Chain of PDZRN4_1, Q6ZMN7 (Q6ZMN7 213-318): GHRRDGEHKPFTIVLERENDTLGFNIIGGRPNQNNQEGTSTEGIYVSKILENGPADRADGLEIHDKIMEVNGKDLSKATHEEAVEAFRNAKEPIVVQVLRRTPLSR
Chain of TJP2_1, Q9UDY2 (Q9UDY2 24-128): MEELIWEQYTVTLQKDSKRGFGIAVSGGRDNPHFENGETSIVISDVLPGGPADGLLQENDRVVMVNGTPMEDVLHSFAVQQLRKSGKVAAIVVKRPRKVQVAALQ

SKPTRRETEV [HPV35-E6_-2P, P27228] was tested, and the pKd [1, 27] was 3.56, the pKd [2, 27] was “below the threshold” and the pKd [3, 27] was “below the threshold”. The pKd [4, 27] was “below the threshold”, the pKd [5, 27] was “below the threshold” and the pKd [6, 27] was 3.52. For the same binder, the pKd [7, 27] was “below the threshold”, the pKd [8, 27] was “below the threshold” and the pKd [9, 27] was “below the threshold”. The pKd [10, 27] was “below the threshold”, the pKd [11, 27] was “below the threshold” and the pKd [12, 27] was “below the threshold”. For the same binder, the pKd [13, 27] was “below the threshold”, the pKd [14, 27] was “below the threshold” and the pKd [15, 27] was 4.07. The pKd [16, 27] was “below the threshold”, the pKd [17, 27] was “below the threshold” and the pKd [18, 27] was “below the threshold”. The pKd [19, 27] was “below the threshold”, the pKd [20, 27] was “below the threshold” and the pKd [21, 27] was “below the threshold”. The pKd [22, 27] was “below the threshold”, the pKd [23, 27] was “below the threshold” and the pKd [24, 27] was “below the threshold”. For the same binder, the pKd [25, 27] was “below the threshold” and the pKd [26, 27] was “below the threshold”.

LGRSTPQSEV [DGKH, Q86XP1] was tested, and the pKd [1, 28] was 3.92, the pKd [2, 28] was “below the threshold” and the pKd [3, 28] was “below the threshold”. The pKd [4, 28] was “below the threshold”, the pKd [5, 28] was 4.15 and the pKd [6, 28] was “below the threshold”. For the same binder, the pKd [7, 28] was “below the threshold”, the pKd [8, 28] was “below the threshold” and the pKd [9, 28] was 3.52. For the same binder, the pKd [10, 28] was “below the threshold”, the pKd [11, 28] was 4.03 and the pKd [12, 28] was “below the threshold”. The pKd [13, 28] was “below the threshold”, the pKd [14, 28] was “below the threshold” and the pKd [15, 28] was 4.03. For the same binder, the pKd [16, 28] was “below the threshold”, the pKd [17, 28] was “below the threshold” and the pKd [18, 28] was “below the threshold”. For the same binder, the pKd [19, 28] was “below the threshold”, the pKd [20, 28] was “below the threshold” and the pKd [21, 28] was “below the threshold”. For the same binder, the pKd [22, 28] was 4.04, the pKd [23, 28] was “below the threshold” and the pKd [24, 28] was “below the threshold”. The pKd [25, 28] was “below the threshold” and the pKd [26, 28] was “below the threshold”.

RRLPGKETMA [GRIK2, Q13002] was tested, and the pKd [1, 28] was “below the threshold”, the pKd [2, 28] was “below the threshold” and the pKd [3, 28] was “below the threshold”. For the same binder, the pKd [4, 28] was “below the threshold”, the pKd [5, 28] was “below the threshold” and the pKd [6, 28] was 3.8. The pKd [7, 28] was “below the threshold”, the pKd [8, 28] was “below the threshold” and the pKd [9, 28] was “below the threshold”. For the same binder, the pKd [10, 28] was “below the threshold”, the pKd [11, 28] was “below the threshold” and the pKd [12, 28] was “below the threshold”. The pKd [13, 28] was “below the threshold”, the pKd [14, 28] was “below the threshold” and the pKd [15, 28] was “below the threshold”. For the same binder, the pKd [16, 28] was “below the threshold”, the pKd [17, 28] was “below the threshold” and the pKd [18, 28] was “below the threshold”. For the same binder, the pKd [19, 28] was “below the threshold”, the pKd [20, 28] was “below the threshold” and the pKd [21, 28] was “below the threshold”. For the same binder, the pKd [22, 28] was “below the threshold”, the pKd [23, 28] was 3.69 and the pKd [24, 28] was “below the threshold”. The pKd [25, 28] was “below the threshold” and the pKd [26, 28] was “below the threshold”.

For YNNCLEILRV [DCAF7, P61962], the pKd [1, 28] was “below the threshold”, the pKd [2, 28] was “below the threshold” and the pKd [3, 28] was “below the threshold”. For the same binder, the pKd [4, 28] was 5.14, the pKd [5, 28] was 3.78 and the pKd [6, 28] was “below the threshold”. The pKd [7, 28] was “below the threshold”, the pKd [8, 28] was “below the threshold” and the pKd [9, 28] was “below the threshold”. The pKd [10, 28] was 4.1, the pKd [11, 28] was “below the threshold” and the pKd [12, 28] was “below the threshold”. The pKd [13, 28] was “below the threshold”, the pKd [14, 28] was 4.25 and the pKd [15, 28] was “below the threshold”. For the same binder, the pKd [16, 28] was “below the threshold”, the pKd [17, 28] was “below the threshold” and the pKd [18, 28] was 4.91. For the same binder, the pKd [19, 28] was “below the threshold”, the pKd [20, 28] was “below the threshold” and the pKd [21, 28] was “below the threshold”. For the same binder, the pKd [22, 28] was “below the threshold”, the pKd [23, 28] was “below the threshold” and the pKd [24, 28] was “below the threshold”. The pKd [25, 28] was “below the threshold” and the pKd [26, 28] was “below the threshold”.

In the case of RRRESYSTTV [EVI5, O60447], the pKd [1, 28] is reported as 5.87, the pKd [2, 28] is reported as “below the threshold” and the pKd [3, 28] is reported as “below the threshold”. The pKd [4, 28] was 4.8, the pKd [5, 28] was 4.68 and the pKd [6, 28] was 4.52. The pKd [7, 28] was “below the threshold”, the pKd [8, 28] was 5.06 and the pKd [9, 28] was 4.63. For the same binder, the pKd [10, 28] was 3.99, the pKd [11, 28] was 4.65 and the pKd [12, 28] was 4.84. The pKd [13, 28] was 3.8, the pKd [14, 28] was “below the threshold” and the pKd [15, 28] was 4.09. The pKd [16, 28] was 5.66, the pKd [17, 28] was “below the threshold” and the pKd [18, 28] was 5.2. The pKd [19, 28] was “below the threshold”, the pKd [20, 28] was 3.88 and the pKd [21, 28] was “below the threshold”. The pKd [22, 28] was 5.18, the pKd [23, 28] was 4.16 and the pKd [24, 28] was 4.23. The pKd [25, 28] was 4.05 and the pKd [26, 28] was “below the threshold”.
